Biological target: T1, CasΦ3 (Cas12j-3) (Biggiephage)
T1 chain: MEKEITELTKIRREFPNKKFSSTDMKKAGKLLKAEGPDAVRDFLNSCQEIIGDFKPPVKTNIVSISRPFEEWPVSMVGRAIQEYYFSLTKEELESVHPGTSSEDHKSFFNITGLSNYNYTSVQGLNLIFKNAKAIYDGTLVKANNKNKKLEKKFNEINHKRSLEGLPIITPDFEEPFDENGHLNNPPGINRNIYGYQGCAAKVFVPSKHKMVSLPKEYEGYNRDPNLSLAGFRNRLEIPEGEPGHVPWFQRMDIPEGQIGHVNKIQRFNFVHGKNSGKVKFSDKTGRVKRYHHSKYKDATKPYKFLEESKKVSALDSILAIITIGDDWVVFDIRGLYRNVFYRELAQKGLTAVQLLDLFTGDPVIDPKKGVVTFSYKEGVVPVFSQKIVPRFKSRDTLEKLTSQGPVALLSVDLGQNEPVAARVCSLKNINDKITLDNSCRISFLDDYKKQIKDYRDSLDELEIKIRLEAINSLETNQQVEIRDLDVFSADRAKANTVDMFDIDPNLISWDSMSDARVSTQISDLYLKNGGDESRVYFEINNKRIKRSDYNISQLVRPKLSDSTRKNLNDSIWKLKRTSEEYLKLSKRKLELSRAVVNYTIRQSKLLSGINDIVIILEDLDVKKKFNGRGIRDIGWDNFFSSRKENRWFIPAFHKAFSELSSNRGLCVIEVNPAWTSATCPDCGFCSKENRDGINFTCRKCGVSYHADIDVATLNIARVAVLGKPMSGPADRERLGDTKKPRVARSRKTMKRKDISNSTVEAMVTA
Test: structure; cryo-EM 2.7 Å R-loop product complex; PAM TTC; Ni2+
Settings: tags: C-terminal His6
Experimental: For the preparation of the Cryo-EM sample, Ni²⁺ was used as a catalytic ion instead of Mg²⁺ due to the higher yield obtained with this metal. CasΦ3 RNP was prepared as described before. 25 nmol of RNP and 37 nmol of unlabeled dsDNA substrate were incubated in 25 ml of MonoQ A buffer (20 mM HEPES pH7.5, 200 mM KCl, 1 mM NiSO₄, 0.5 mM TCEP) for 2 h at 20° C. to allow DNA cleavage. The product of the reaction was loaded in a MonoQ column equilibrated with MonoQ A buffer, and CasΦ3 R-loop complex was separated from the RNP and the unbound DNA substrate by a salt gradient elution using MonoQ B buffer (20 mM HEPES pH7.5, 2 M KCl, 1 mM NiSO₄, 0.5 mM TCEP). CasΦ3 R-loop eluted at 16-20% of MonoQ buffer B […]. […] 2.5 μL of freshly purified CasΦ3 R-loop complex (Absorbance_{260 nm} of ~1.6) was applied to UltrAuFoil 300 mesh R0.6/1.0 holey grids (Quantifoil), glow-discharged for 60 s at 10 mA (Leica EM ACE200), and plunge-frozen in liquid ethane (pre-cooled with liquid nitrogen) using a Vitrobot Mark IV (FEI, Thermo Fisher Scientific) using the next conditions: blotting time 3 s, 100% humidity and 4° C.
We reconstituted and characterized a functional CasΦ3-crRNA complex (FIG. 5) and determined the structure of the enzyme after severing a target dsDNA by cryo-EM (FIG. 1). […]

B1: CasΦ3 crRNA ; target dsDNA with TTC PAM (NT/T strands) (ssRNA ; dsDNA)
RNA: UAUUGAUUGCCCAGUACGCUGGGACAGCUGGUAAUGGGAUACCUU
DNA 1: GTAATTCAGCTGGTAATGGGATACCTTGTGCTACAGC
DNA 2: GCTGTAGCACAAGGTATCCCATTACCAGCTGAATTAC
binding result: binds

— patent US20260234700, “MUTANT CAS12J ENDONUCLEASES” (University of Copenhagen, published 2026)
